{
  "source": "paper PMC7130864",
  "origin": "cited, not measured here",
  "target": "Kv1.3 (Homo sapiens) (UniProt P22001)",
  "sequence (P22001 whole entry)": "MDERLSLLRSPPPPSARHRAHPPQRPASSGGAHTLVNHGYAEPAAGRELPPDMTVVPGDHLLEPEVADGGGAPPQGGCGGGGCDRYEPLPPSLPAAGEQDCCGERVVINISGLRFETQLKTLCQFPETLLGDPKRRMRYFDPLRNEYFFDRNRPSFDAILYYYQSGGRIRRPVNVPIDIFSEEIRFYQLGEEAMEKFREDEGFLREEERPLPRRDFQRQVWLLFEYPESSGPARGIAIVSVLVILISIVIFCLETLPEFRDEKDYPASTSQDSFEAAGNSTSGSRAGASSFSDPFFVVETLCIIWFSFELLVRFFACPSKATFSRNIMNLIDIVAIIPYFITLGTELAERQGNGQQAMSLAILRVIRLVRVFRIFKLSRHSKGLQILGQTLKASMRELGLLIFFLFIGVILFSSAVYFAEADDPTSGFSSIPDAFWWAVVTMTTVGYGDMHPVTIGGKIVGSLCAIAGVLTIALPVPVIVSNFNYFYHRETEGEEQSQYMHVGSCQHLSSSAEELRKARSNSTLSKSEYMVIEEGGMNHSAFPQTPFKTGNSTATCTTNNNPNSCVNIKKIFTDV",
  "data": [
    {"substance": "BmKTX (from UniProt Q9NII7)", "values": [
      {"measurement": "Kd", "result": 0.2, "unit": "nM"}
    ]}
  ]
}
